“Also recorded” adds a separate entry of the source.
Legend:
[1] = test system: adenomyosis lesions; test: Adenomyosis lesions in surgically-induced endometriosis monkey models; type: in vivo, cynomolgus monkeys; conditions: one case per group, compared to vehicle group
Source text: After the final laparoscopic observation six months after the start of antibody administration in surgically-induced endometriosis monkey models, the uteri collected during autopsy were fixed with 10% neutral buffered formalin and HE-stained for observation. Endometrial tissues analogous to those of adenomyosis were strongly seen in the uterus in one case of the vehicle group as well as in one case of the antibody administration group. […] Thus, the monkeys were considered as being a human adenomyosis complication model, and the endometrial tissues in the myometria of these single cases were compared.

[2] = target: T1, cynomolgus monkey FcγRIIIa (Macaca fascicularis, UniProt Q8SPW2); test: Binding to soluble FcγR (BIACORE T200); conditions: 20° C., HBS-EP+
T1 construct: the soluble forms of FcγRIa and FcγRIIIa in human and cynomolgus monkey; His tag; made in house
T1 sequence (Q8SPW2 17-208 limits assumed): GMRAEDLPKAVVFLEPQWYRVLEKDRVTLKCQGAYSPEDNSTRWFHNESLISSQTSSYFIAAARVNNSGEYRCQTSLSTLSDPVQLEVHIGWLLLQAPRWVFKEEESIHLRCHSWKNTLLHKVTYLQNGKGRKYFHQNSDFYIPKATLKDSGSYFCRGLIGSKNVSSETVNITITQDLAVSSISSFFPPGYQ
Description: (§1) Soluble FcγRIa and FcγRIIIa in both human and cynomolgus monkey were produced in the form of His-tagged molecules by methods known to those of ordinary skill in the art. […] Next, soluble FcγRIa or FcγRIIIa was injected with a running buffer (used as a reference solution), and was made to interact with the antibodies captured onto the sensor chip. HBS-EP+(GE Healthcare) was used as the running buffer, and HBS-EP+ was also used to dilute the soluble FcγRIa or FcγRIIIa. […] All measurements were carried out at 20° C.

[3] = target: T2, human FcγRIIIa (Homo sapiens, UniProt P08637); test: Binding to soluble FcγR (BIACORE T200); conditions: 20° C., HBS-EP+
T2 construct: the soluble forms of FcγRIa and FcγRIIIa in human and cynomolgus monkey; His tag; made in house
T2 sequence (P08637 17-208 limits assumed): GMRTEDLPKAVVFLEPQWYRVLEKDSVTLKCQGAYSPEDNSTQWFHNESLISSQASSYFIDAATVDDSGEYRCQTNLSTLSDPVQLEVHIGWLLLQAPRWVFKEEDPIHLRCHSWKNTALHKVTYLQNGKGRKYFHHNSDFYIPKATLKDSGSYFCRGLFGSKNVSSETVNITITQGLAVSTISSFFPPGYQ
Description: as §1

[4] = test system: cynomolgus monkey FcγRIa; test: Binding to soluble FcγR (BIACORE T200); conditions: 20° C., HBS-EP+
Description: as §1

[5] = target: T3, human FcγRIa (Homo sapiens, UniProt P12314); test: Binding to soluble FcγR (BIACORE T200); conditions: 20° C., HBS-EP+
T3 construct: the soluble forms of FcγRIa and FcγRIIIa in human and cynomolgus monkey; His tag; made in house
T3 sequence (P12314 16-292 limits assumed): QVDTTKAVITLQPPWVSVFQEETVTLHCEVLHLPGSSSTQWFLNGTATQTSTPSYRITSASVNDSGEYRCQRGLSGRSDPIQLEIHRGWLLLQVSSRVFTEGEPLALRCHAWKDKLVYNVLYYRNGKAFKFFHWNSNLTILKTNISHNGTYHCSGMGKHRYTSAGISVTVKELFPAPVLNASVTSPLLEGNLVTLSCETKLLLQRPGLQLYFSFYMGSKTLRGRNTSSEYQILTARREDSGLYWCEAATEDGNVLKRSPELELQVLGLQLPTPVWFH
Description: as §1

B1: H1009/L395-F1974m: H1009-F1974m (SEQ ID NO:36) heavy chain, L395-kOMT light chain; the anti-IL-8 antibody of Table 29 (antibody)
heavy: QVQLVESGGGLVQPGGSLRLSCAASGFTFSDYYLSWVRQAPGKGLEWVGLIRNKDNYHTPEYSASVKGRFTISRDDSKNSLYLTMSDLKTEDTAVYYCARENHRYDVELAYWGQGTLVTVSSASTKGPSVFPLAPSSKSTSGGTAALGCLVKDYFPEPVTVSWNSGALTSGVHTFPAVLQSSGLYSLSSVVTVPSSSLGTQTYICNVNHKPSNTKVDKKVEPKSCDKTHTCPPCPAPELRRGPSVFLFPPKPKDTLMISRTPEVTCVVVDVSHEDPEVKFNWYVDGVEVHNAKTKPREEQYNSTYRVVSVLTVLHQDWLNGKEYKCKVSNKGLPSSIEKTISKAKGQPREPQVYTLPPSREEMTKNQVSLTCLVKGFYPSDIAVEWESNGQPENNYKTTPPVLDSDGSFFLYSKLTVDKSRWQQGNVFSCSVLHEALHAHTTRKELSLSP
light: DIQMTQSPSSLSASVGDRVTITCRASEIIYSYLAWYQQKPGKAPKLLIYKAKTHADGVPSRFSGSGSGTDFTFTISSLQPEDIATYYCKHHFGFPRTFGQGTKVEIKRTVAAPSVFIFPPSDEQLKSGTASVVCLLNNFYPREAKVQWKVDNALQSGNSQESVTEQDSKDSTYSLSSTLTLSKADYEKHKVYACEVTHQGLSSPVTKSFNRGEC
- histology of adenomyosis lesions (HE staining) [1]: atrophy of endometrial epithelia in the adenomyosis lesions as well as reduction and atrophy of stromal cells were observed; also recorded: Atrophy of endometrial epithelium, and atrophy and reduction of stromal cells were observed
- binding to soluble cynomolgus monkey FcγRIIIa [2]: not to bind to any of the FcγRs
- binding to soluble human FcγRIIIa [3]: not to bind to any of the FcγRs
- binding to soluble cynomolgus monkey FcγRIa [4]: not to bind to any of the FcγRs
- binding to soluble human FcγRIa [5]: not to bind to any of the FcγRs

— patent US20210301011A1, “COMPOSITION FOR PROPHYLAXIS OR TREATMENT OF IL-8 RELATED DISEASES” (CHUGAI SEIYAKU KABUSHIKI KAISHA, priority 2016, published 2021)
